Measurements taken from paper PMC4442525 (2015).

B1: FLAG-tagged KIR3DL1*001 [human] / HLA-B*57:01-LF9 tetramer [human | not stated] (parent complex)
chain 1: HMGGQDKPFLSAWPSAVVPRGGHVTLRCHYRHRFNNFMLYKEDRIHIPIFHGRIFQESFNMSPVTTAHAGNYTCRGSHPHSPTGWSAPSNPVVIMVTGNHRKPSLLAHPGPLVKSGERVILQCWSDIMFEHFFLHKEGISKDPSRLVGQIHDGVSKANFSIGPMMLALAGTYRCYGSVTHTPYQLSAPSDPLDIVVTGPYEKPSLSAQPGPKVQAGESVTLSCSSRSSYDMYHLSREGGAHERRLPAVRKVNRTFQADFPLGPATHGGTYRCFGSFRHSPYEWSDPSDPLLVSVTGNPSSSWPSPTEPSSKSGNPRHLHILIGTSVVIILFILLLFFLLHLWCSNKKNAAVMDQEPAGNRTANSEDSDEQDPEEVTYAQLDHCVFTQRKITRPSQRPKTPPTDTILYTELPNAKPRSKVVSCP
chain 2: not shown
chain 3: not shown
chain 4: LSSPVTKSF

Variants of: B1
Assay: pHLA tetramer staining of transfected HEK293T cells; read off a plot

Compared with chain 1 L166R, chain 1 P163S is higher in response: ~8 for the first, ~81 for the second.

First: chain 1 P199L
Second: chain 1 G138W
The response of the first is lower: ~71 for the first, ~83 for the second.

Variants of: B1
Assay: as above
Remark: another data set of the same source

Compared with chain 4 S8H, chain 4 S8A is lower in response: ~99 for the first, ~57 for the second.

Compared with chain 4 S8F, chain 4 S8L is lower in response: ~110 for the first, ~58 for the second.

chain 4 S8R was tested, and the response was ~72.

Variants of: B1
Assay: as above
Remark: another data set of the same source

In the case of chain 4 S8E, the response is reported as ~6.
